Publication PMC9696579 (Nature structural & molecular biology, 2022)
Where no end group is shown, it is not given here. 3xPEG = linker of three PEG units

Assays:
[1] = molecular target: mouse PKA-Cα (PKA catalytic subunit alpha), purified (mouse, UniProt P05132 1-351); assay: fluorescence polarisation
[2] = molecular target: human PKA-Cα (PKA catalytic subunit alpha), purified, used in fluorescence polarization (human, UniProt P17612 1-351); assay: fluorescence polarisation

For {FAM-3xPEG}-SADVSSAWAQHVTKMVARRGAILP [FAM-labeled standard SMO PKI peptide (SMO residues 615–638)], the Kd [1] was 911 nM and the Kd [2] was 823 nM.
